These results are taken from PMC10234869.

For assay [1], the target named is Signal Peptide Peptidase-like 2c, C-terminally myc-tagged (SPPL2c-myc) (murine) (UniProt A2A6C4).
Assay [2] deals with Frey1 CD74-Lum (Frey1-3xFLAG with its luminal domain replaced by the first 70 aa of the luminal segment of CD74) (murine) (UniProt Q8CF31). As to the kind of experiment: co-IP; anti-FLAG M2 and Protein G agarose from 0.5% CHAPSO lysates (1 mg in 500 µl, overnight, 4 °C) of transiently transfected HEK293T cells; four washes with CHAPSO buffer; eluates blotted; co-precipitated SPPL2c divided by the precipitated Frey1 or PLN variant and normalised to wild-type Frey1.

As for “PLN PRSAG (3xFLAG-PLN with the Frey1 residues P11, R12, S16, A25 and G26 at the corresponding positions of its membrane anchor) (from UniProt P61014 1-52)”, the inhibition of SPPL2c-mediated processing of HA-RAMP4-2 in HEK cells (Fig. 4H, I) in assay [1] came to 50%.

B1: Signal Peptide Peptidase-like 2c, C-terminally myc-tagged (SPPL2c-myc) (enzyme)
chain: EYGLVRVVSKNWSKDYCVLYSSDYVNLPRDLHHAPLLSLHDGTKTPWCPDEDSFHQAQDSSPRQRPLHQTTTMVTRGNCSFYAKGWLAQDQGAQGLLIVSRARNQQCSDTISKPQDPSKPWPALTIPVAVLRYTDMLDIVSHTYGDTDVRVAMFAPLEPVTDYNMAIIFILAVGTVAAGGYWAGLMEANKLQRRQAQRGGGLGGHNQQQTVAAERSQRAWEDDDFEDAPMDFTPAMTGAVVTMSCSIMILLYFFYDCFVYVMIGIFSLGASTGLYSCLAPILCHLPLWRYQWVLPGQRVSVTWPLLLLAGLCAMVTVLWVIHRNEDHWAWLLQDTLGVAYCLFVLRRVRLPTFKNCTLFLLALLAFDVFFVFITPLFTKTGESIMVEVASGPADSSSHERLPMVLKVPRLSFSALTLCNQPFSILGFGDIVVPGFLVAYCHRFDMQVQSRQVYYMACTVAYAVGLLVTFVAMILMQMGQPALLYLVSSTLLTSLAVATCRQEFTLFWTGQGRAKIPAEPVAQPCIASAVGSKMKLEDAKDSRTTNRFEQAVDGESGDLESSTGDDMAEMVTLSEDEATSPEGHSESSEGWSDTNLDPNELPSGSPMALEAMLIPLIQPIPHPSELGHIRTQSRVHDSSLPWMGLHKRKGLKVKKSMSAQAPL
B1 came in with a co-precipitated SPPL2c, percent of wild-type Frey1, normalised to the expression level in assay [2] of 20%.
